Assay results published in patent US20220411529A1 (Genmab, published 2022).

Each binder was assayed against FcγRIIIa (V158 high affinity allotype) (UniProt P08637 17-254, limits assumed) (assay: cell-based or functional assay).
FcγRIIIa (V158 high affinity allotype), sequence (P08637 17-254 F176V limits assumed): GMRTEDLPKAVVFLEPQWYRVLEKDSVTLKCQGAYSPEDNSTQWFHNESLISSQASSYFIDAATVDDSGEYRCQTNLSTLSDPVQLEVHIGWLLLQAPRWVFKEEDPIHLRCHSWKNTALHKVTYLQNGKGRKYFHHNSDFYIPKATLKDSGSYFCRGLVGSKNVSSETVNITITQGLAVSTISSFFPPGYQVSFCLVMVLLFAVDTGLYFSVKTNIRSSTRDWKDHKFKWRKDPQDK

| Binder | FcγRIIIa activation, reporter cell assay, relative AUC, single agent |
| --- | --- |
| IgG2-CAMPATH-1H-E345R-K439E (antibody) heavy: QVQLQESGPGLVRPSQTLSLTCTVSGFTFTDFYMNWVRQPPGRGLEWIGFIRDKAKGYTTEYNPSVKGRVTMLVDTSKNQFSLRLSSVTAADTAVYYCAREGHTAAPFDYWGQGSLVTVSSASTKGPSVFPLAPCSRSTSESTAALGCLVKDYFPEPVTVSWNSGALTSGVHTFPAVLQSSGLYSLSSVVTVPSSNFGTQTYTCNVDHKPSNTKVDKTVERKCCVECPPCPAPPVAGPSVFLFPPKPKDTLMISRTPEVTCVVVDVSHEDPEVQFNWYVDGVEVHNAKTKPREEQFNSTFRVVSVLTVVHQDWLNGKEYKCKVSNKGLPAPIEKTISKTKGQPRRPQVYTLPPSREEMTKNQVSLTCLVKGFYPSDIAVEWESNGQPENNYKTTPPMLDSDGSFFLYSKLTVDKSRWQQGNVFSCSVMHEALHNHYTQESLSLSPGK light: not shown | < 5 % of the level induced by the positive control mixture |
| IgG2-CAMPATH-1H-E345R-K439E-N297A (antibody) heavy: QVQLQESGPGLVRPSQTLSLTCTVSGFTFTDFYMNWVRQPPGRGLEWIGFIRDKAKGYTTEYNPSVKGRVTMLVDTSKNQFSLRLSSVTAADTAVYYCAREGHTAAPFDYWGQGSLVTVSSASTKGPSVFPLAPCSRSTSESTAALGCLVKDYFPEPVTVSWNSGALTSGVHTFPAVLQSSGLYSLSSVVTVPSSNFGTQTYTCNVDHKPSNTKVDKTVERKCCVECPPCPAPPVAGPSVFLFPPKPKDTLMISRTPEVTCVVVDVSHEDPEVQFNWYVDGVEVHNAKTKPREEQFASTFRVVSVLTVVHQDWLNGKEYKCKVSNKGLPAPIEKTISKTKGQPRRPQVYTLPPSREEMTKNQVSLTCLVKGFYPSDIAVEWESNGQPENNYKTTPPMLDSDGSFFLYSKLTVDKSRWQQGNVFSCSVMHEALHNHYTQESLSLSPGK light: not shown | < 5 % of the level induced by the positive control mixture |
| IgG2-11B8-E345R-S440K (antibody) heavy: EVQLVQSGGGLVHPGGSLRLSCTGSGFTFSYHAMHWVRQAPGKGLEWVSIIGTGGVTYYADSVKGRFTISRDNVKNSLYLQMNSLRAEDMAVYYCARDYYGAGSFYDGLYGMDVWGQGTTVTVSSASTKGPSVFPLAPCSRSTSESTAALGCLVKDYFPEPVTVSWNSGALTSGVHTFPAVLQSSGLYSLSSVVTVPSSNFGTQTYTCNVDHKPSNTKVDKTVERKCCVECPPCPAPPVAGPSVFLFPPKPKDTLMISRTPEVTCVVVDVSHEDPEVQFNWYVDGVEVHNAKTKPREEQFNSTFRVVSVLTVVHQDWLNGKEYKCKVSNKGLPAPIEKTISKTKGQPRRPQVYTLPPSREEMTKNQVSLTCLVKGFYPSDIAVEWESNGQPENNYKTTPPMLDSDGSFFLYSKLTVDKSRWQQGNVFSCSVMHEALHNHYTQKKLSLSPGK light: not shown | < 5 % of the level induced by the positive control mixture |
| IgG2-11B8-E345R-S440K-N297A (antibody) heavy: EVQLVQSGGGLVHPGGSLRLSCTGSGFTFSYHAMHWVRQAPGKGLEWVSIIGTGGVTYYADSVKGRFTISRDNVKNSLYLQMNSLRAEDMAVYYCARDYYGAGSFYDGLYGMDVWGQGTTVTVSSASTKGPSVFPLAPCSRSTSESTAALGCLVKDYFPEPVTVSWNSGALTSGVHTFPAVLQSSGLYSLSSVVTVPSSNFGTQTYTCNVDHKPSNTKVDKTVERKCCVECPPCPAPPVAGPSVFLFPPKPKDTLMISRTPEVTCVVVDVSHEDPEVQFNWYVDGVEVHNAKTKPREEQFASTFRVVSVLTVVHQDWLNGKEYKCKVSNKGLPAPIEKTISKTKGQPRRPQVYTLPPSREEMTKNQVSLTCLVKGFYPSDIAVEWESNGQPENNYKTTPPMLDSDGSFFLYSKLTVDKSRWQQGNVFSCSVMHEALHNHYTQKKLSLSPGK light: not shown | < 5 % of the level induced by the positive control mixture |
| IgG4-CAMPATH-1H-E345R-K439E (antibody) heavy: QVQLQESGPGLVRPSQTLSLTCTVSGFTFTDFYMNWVRQPPGRGLEWIGFIRDKAKGYTTEYNPSVKGRVTMLVDTSKNQFSLRLSSVTAADTAVYYCAREGHTAAPFDYWGQGSLVTVSSASTKGPSVFPLAPCSRSTSESTAALGCLVKDYFPEPVTVSWNSGALTSGVHTFPAVLQSSGLYSLSSVVTVPSSSLGTKTYTCNVDHKPSNTKVDKRVESKYGPPCPSCPAPEFLGGPSVFLFPPKPKDTLMISRTPEVTCVVVDVSQEDPEVQFNWYVDGVEVHNAKTKPREEQFNSTYRVVSVLTVLHQDWLNGKEYKCKVSNKGLPSSIEKTISKAKGQPRRPQVYTLPPSQEEMTKNQVSLTCLVKGFYPSDIAVEWESNGQPENNYKTTPPVLDSDGSFFLYSRLTVDKSRWQEGNVFSCSVMHEALHNHYTQESLSLSLGK light: not shown | < 5 % of the level induced by the positive control mixture |
| IgG4-CAMPATH-1H-E345R-K439E-N297A (antibody) heavy: QVQLQESGPGLVRPSQTLSLTCTVSGFTFTDFYMNWVRQPPGRGLEWIGFIRDKAKGYTTEYNPSVKGRVTMLVDTSKNQFSLRLSSVTAADTAVYYCAREGHTAAPFDYWGQGSLVTVSSASTKGPSVFPLAPCSRSTSESTAALGCLVKDYFPEPVTVSWNSGALTSGVHTFPAVLQSSGLYSLSSVVTVPSSSLGTKTYTCNVDHKPSNTKVDKRVESKYGPPCPSCPAPEFLGGPSVFLFPPKPKDTLMISRTPEVTCVVVDVSQEDPEVQFNWYVDGVEVHNAKTKPREEQFASTYRVVSVLTVLHQDWLNGKEYKCKVSNKGLPSSIEKTISKAKGQPRRPQVYTLPPSQEEMTKNQVSLTCLVKGFYPSDIAVEWESNGQPENNYKTTPPVLDSDGSFFLYSRLTVDKSRWQEGNVFSCSVMHEALHNHYTQESLSLSLGK light: not shown | < 5 % of the level induced by the positive control mixture |
| IgG4-11B8-E345R-S440K (antibody) heavy: EVQLVQSGGGLVHPGGSLRLSCTGSGFTFSYHAMHWVRQAPGKGLEWVSIIGTGGVTYYADSVKGRFTISRDNVKNSLYLQMNSLRAEDMAVYYCARDYYGAGSFYDGLYGMDVWGQGTTVTVSSASTKGPSVFPLAPCSRSTSESTAALGCLVKDYFPEPVTVSWNSGALTSGVHTFPAVLQSSGLYSLSSVVTVPSSSLGTKTYTCNVDHKPSNTKVDKRVESKYGPPCPSCPAPEFLGGPSVFLFPPKPKDTLMISRTPEVTCVVVDVSQEDPEVQFNWYVDGVEVHNAKTKPREEQFNSTYRVVSVLTVLHQDWLNGKEYKCKVSNKGLPSSIEKTISKAKGQPRRPQVYTLPPSQEEMTKNQVSLTCLVKGFYPSDIAVEWESNGQPENNYKTTPPVLDSDGSFFLYSRLTVDKSRWQEGNVFSCSVMHEALHNHYTQKKLSLSLGK light: not shown | < 5 % of the level induced by the positive control mixture |
| IgG4-11B8-E345R-S440K-N297A (antibody) heavy: EVQLVQSGGGLVHPGGSLRLSCTGSGFTFSYHAMHWVRQAPGKGLEWVSIIGTGGVTYYADSVKGRFTISRDNVKNSLYLQMNSLRAEDMAVYYCARDYYGAGSFYDGLYGMDVWGQGTTVTVSSASTKGPSVFPLAPCSRSTSESTAALGCLVKDYFPEPVTVSWNSGALTSGVHTFPAVLQSSGLYSLSSVVTVPSSSLGTKTYTCNVDHKPSNTKVDKRVESKYGPPCPSCPAPEFLGGPSVFLFPPKPKDTLMISRTPEVTCVVVDVSQEDPEVQFNWYVDGVEVHNAKTKPREEQFASTYRVVSVLTVLHQDWLNGKEYKCKVSNKGLPSSIEKTISKAKGQPRRPQVYTLPPSQEEMTKNQVSLTCLVKGFYPSDIAVEWESNGQPENNYKTTPPVLDSDGSFFLYSRLTVDKSRWQEGNVFSCSVMHEALHNHYTQKKLSLSLGK light: not shown | < 5 % of the level induced by the positive control mixture |
